We go through one protein from patent publication US20120065133A1 (University of Pennsylvania, published 2012).

The data set concerns the molecule itself. Briefly: analytical ultracentrifugation; self-association of the peptide.

Ends that are not written are not given here.

B1: Construct 12 (AP6) (peptide)
peptide: CGGGEIWKQHEEALKKLFAFHFILPFIIMAIAMVHLLFLFGEGL
modifications: also: acetylated (position not given here)
notes: Designed amphiphilic helical peptide made by solid-phase synthesis; Heme cofactors may have been present; also called amphiphilic construct AP6
On to B1, for which the binding result was “binds”.
